How the values were obtained:
human CD3e/d = target: T1, human CD3e/d (human, UniProt P07766 23-126; P04234 22-105); assay: SPR (Carterra LSA), mAb on chip
T1 construct: Bought soluble protein; also called hCD3e/d; human CD3/ed (Sino CT038-H2508H)
Procedure, shortened: (§1)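 Purified mAbs amine-coupled (EDC/S-NHS) at 10 μg/mL in 10 mM NaOAc pH 4.25 onto an HC-30M chip, with benchmark and negative-control mAbs; analyte flowed over the array. Double-referenced sensorgrams fitted globally to a 1:1 Langmuir model for ka, kd and KD.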

human CD3e/g = target: T2, human CD3e/g (human, UniProt P07766 23-126; P09693 23-116); assay: SPR (Carterra LSA), mAb on chip
T2 construct: Bought soluble protein; also called hCD3e/g; human CD3e/g (Acro CDD-C52W4)
T2 sequence (P07766 23-126, chain 1 of 2): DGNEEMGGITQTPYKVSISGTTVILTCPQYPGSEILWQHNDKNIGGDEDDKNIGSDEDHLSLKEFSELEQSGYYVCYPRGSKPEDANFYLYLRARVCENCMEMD
T2 sequence (P09693 23-116, chain 2 of 2): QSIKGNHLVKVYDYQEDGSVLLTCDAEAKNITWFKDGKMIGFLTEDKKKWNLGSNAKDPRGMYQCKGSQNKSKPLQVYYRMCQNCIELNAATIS
Procedure, shortened: as §1

T1 sequence (P07766 23-126, chain 1 of 2): as the sequence (P07766 23-126, chain 1 of 2) above
T1 sequence (P04234 22-105, chain 2 of 2): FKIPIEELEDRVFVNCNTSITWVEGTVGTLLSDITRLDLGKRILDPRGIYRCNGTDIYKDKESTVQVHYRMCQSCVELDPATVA

Binder | Kd (human CD3e/d) [nM] | Kd (human CD3e/g) [nM]
mAb 131 (antibody, V domains shown, VH and VL only) VH: EVQLVESGGGLVKTGGSLRISCVASGFSFKKAWMNWVRQAPGKGLEWVGRIKRNTDGGTIDYAAPVKGRFSLSRDDSKNTLFLQMNSLKTEDTAVYFCTTLDSSSYYVGYYYMDVWGKGTTVTVSS VL: DIHMTQSPSSVSASVGDRVTITCRASQDINNWLAWYQQKPGKAPKLLIYTASSLQSGVPSRFSGSGSGTDFTLTISSLQPEDFATYFCQQAHSLPITFGQGTRLGIK | 32.1 | 7.45
mAb 133 (antibody, V domains shown, VH and VL only) VH: EVQLVESGGGLVKTGGSLRLSCVASGFSFKKAWMSWVRQAPGKGLEWVGRIKRNTDGGTADYAAPVKGRFTLSRDDSKKTLFLQMNSLKTEDSAVYYCVTLDSSSYYVGYYYMDVWGKGTTVTVSS VL: DIQMTQSPSSVSASVGDRVSITCRASQDINNWLAWYQQKPGKAPKLLIYTASSLQSGVPSRFSGSGSGTDFTLTIGSLQPEDFATYYCQQAHSLPITFGQGTRLEIK | 27.2 | 6.64
mAb 155 (antibody, V domains shown, VH and VL only) VH: EVQLVESGGGLVKTGGSLRLSCVASGFSFKKAWMNWVRQAPGKGLEWVGRIKRNTDGGTADYAAPVKGRFTLSRDDSKKTLFLQMNSLKTEDTAVYYCTTLDSSSYYVGYYYMDVWGKGTTVTVSS VL: DIQMTQSPSSVSASVGDRVIITCRASQDINNWLAWYQQKPGKAPKLLIYTASSLQSGVPSRFSGSGSGTDFTLTIGSLQPEDFATYYCQQAHSLPISFGQGTRLDIK | 46.2 | 7.07
mAb 156 (antibody, V domains shown, VH and VL only) VH: EVQLVESGGGLVKTGGSLRLSCVASGFSFKKAWMNWVRQAPGKGLEWVGRIKRNTDGGTADYAAPVKGRFTLSRDDSKKTLFLQMNSLKTEDTAVYYCTTLDSSSYYVGYYYMDVWGKGTTVTVSS VL: DIQMTQSPSSVSASVGDRVIITCRASQDINNWLAWYQQKAGKAPKLLIYTASSLQSGVPSRFSGSGSGTDFTLTIGSLQPEDFATYYCQQAHSLPITFGQGTRLEIK | 47.7 | 7
mAb 157 (antibody, V domains shown, VH and VL only) VH: EVQLVESGGGLVKTGGSLRLSCVASGFSFKKAWMNWVRQAPGKGLEWVGRIKRTADGGATDYAAPVKGRFTLSRDDSKNTLYLQMNSLKTEDTAVYYCTTLDSSSWYVGYYYMDVWGKGTTVTVSS VL: DIHMTQAPSSVSASVGDRVTFTCRASQDINNWLAWYQQKPGKAPKLLIYTASSLQSGVPSRFSGSGSGTDFTLTISSLQPEDFATYYCQQAHSLPITFGQGTRLGIK | 53.1 | 12.2
mAb 163 (antibody, V domains shown, VH and VL only) VH: EVQLVESGGGLVKTGGSLRLSCVASGFSFKKAWMNWVRQVPGKGLEWVGRIKRNTDGGTADYAAPVKGRFTLSRDDSKKTLFLQMNSLKTEDTAVYYCTTLDSSSYYVGYYYMDVWGKGTTVTVSS VL: DIQMTQSPSSVSASVGDRVIITCRASQDINNWLAWYQQKPGKAPKLLIYTASSLQSGVPSRFSGSGSGTDFTLTIGSLQPEDFATYYCQQAHSLPITFGQGTRLEIK | 42 | 8.63
mAb 164 (antibody, V domains shown, VH and VL only) VH: EVQLVESGGGLVKTGGSLRLSCVASGFSFKKAWMNWVRQAPGKGLEWVGRIKRNTDGGTADYAAPVKGRFTLSRDDSKKTLFLQMNSLKTEDTAVYYCTTLDSSSYYVGYYYMDVWGKGTTVTVSS VL: DIQMTQSPSSVSASVGDRVTITCRASQDIKNWLAWYQQKPGKAPKLLIYTASSLQSGVPSRFSGSGSGTDFTLTIGSLQPEDFATYYCQQAHSLPITFGQGTRLEIK | 77 | 15
mAb 165 (antibody, V domains shown, VH and VL only) VH: EVQLVESGGGLVKTGGSLRLSCVASGFSFKKAWMNWVRQAPGKGLEWVGRIKRNTDGGTADYAAPVKGRFTLSRDDSKRTLYLQMNSLKTEDTAVYYCTTLDSSSRYVGYYYMDVWGKGTTVTVSS VL: DIQMTQSPSSVSASVGDRVIITCRASQDINNWLAWYQQKPGKVPKLLIYTASSLQSGVPSRFSGSGSGTDFTLTIGSLQPEDFATYYCQQAHSLPITFGQGTRLEIK | 40.4 | 10.6
mAb 166 (antibody, V domains shown, VH and VL only) VH: EVQLVESGGGLVKTGGSLRLSCVASGFSFKKAWMNWVRQAPGRGLEWVGRIKRNTDGGTTDYAAPVKGRFTLSRDDSKNMLYLQMNSLKTEDTAVYYCTTLDSSSLYVGYYYMDVWGKGTTVTVSS VL: DIQMTQSPSSVSASVGDRVTITCRASQDINNWLAWYQQKPGKAPKLLIYTASSLQSGVPSRFSGSGSGTDFTLTISSLQPEDFATYFCQQAHSLPITFGQGTRLEIT | 47.3 | 12.5
mAb 169 (antibody, V domains shown, VH and VL only) VH: EVQLVESGGGLVKTGGSLRLSCVASGFSFKKAWMNWVRQAPGKGLEWVGRIKRNTDGGTADYAAPVKGRFTLSRDDSKKTLFLQMNSLKTEDTAVYYCTTLDSSSYYVGYYYMDVWGKGTTVTVSS VL: DIQMTQSPSSVSASVGDRVIITCRASQDINNWLAWYQQKPGKAPKLLIYTASSLQSGVPSRFSGSGSGTDFILTIGSLQPEDFATYYCQQAHSLPITFGQGTRLEIK | 73.8 | 12.6
mAb 137 (antibody, V domains shown, VH and VL only) VH: QVQLVESGGGVVQPGRSLRLSCAASGFTFSTYGMHWVRQAPGKGLEWVAVIWYDGSHKYYADSVKGRFTISRDNSKKTLYLQMNSLRAEDTGIYYCARTGISGNMSYFYFDHWGQGILVTVSS VL: not shown | 181 | 950
mAb 141 (antibody, V domains shown, VH and VL only) VH: QVQLVQSGAEVKKPGASVKVSCKASGYTFTSYYIHWVRQAPGQGLDWMGIINPSGGITGYAQKLQGRVTMTRDTSTTTVYMELSSLRSDDTAVYYCARGVRGNYYYYYMDVWGKGTTVTVSS VL: EIVLTQSPDFQSVTPKEKVTITCRASQSIGSKLHWYQQKPDQSPKLLIKYASQSFSGVPSRFSGSGSGTDFNLTINSLEAEDAATFYCHQSSGLPYTFGQGTKLEIK | 92.1 | 26
mAb 145 (antibody, V domains shown, VH and VL only) VH: QVQLVQSGAEVKKPGASVKVSCKASGYTFTNYYIHWVRQAPGQGLDWMGIINPSGGITGYAQKFQGRVTMTRDTSTTTVYMELSSLRSDDTAVYYCARGVRGNYYYYYMDVWGKGTTVTVSS VL: EIVLTQSPDFQSVTPKEKVTITCRASQSIGSKLHWYQQKPDQSPKLLIKFASQSFSGVPSRFSGSGSGTDFNLTINSLEPEDAATFYCHQSSGLPYTFGQGTKLEIK | 61 | 13.1
mAb 52 (antibody, V domains shown, VH and VL only) VH: QVQLVQSGAEVKKPGASVKVSCKASGYTFTSHDINWVRQATGQGLEWMGWLNPNSGKTGYAQKFQGRVTMARDTSMYTADMELSSLRFEDTAVYYCARVGHYDMWPGFFSFDYWGQGTLVTVSS VL: DIQMTQSPSSLSASVGDRIIITCRASQDIRNDLGWYQQKPGKAPKRLIYAASSLQSGVPSRFSGSRSGTEFTLTISSLHPEDFATYYCLQHRSYPYTFGQGTNLEIK | 17.1 | 112
mAb 188 (antibody, V domains shown, VH and VL only) VH: QVQLVESGGGVVQPGRSLRLSCAASGFTFSGYGMHWVRQAPGKGLEWVAIIYYNGKKEYYADSVKGRFTISRDNSKNTLYLQMNSLRAEDTAVYYCTRGEGYNWFDPWGQGTLVTVSS VL: not shown | 36 | 17
mAb 189 (antibody, V domains shown, VH and VL only) VH: QVQLVESGGGVVQPGRSLRLSCAASGFTFSGYGMHWVRQAPGKGLEWVAIIYYDGKNKYYADSVKGRFTISRDNSKSTLYLQMNSLGADDTAVYYCTRGKGYNWFDPWGQGTLVTVSS VL: not shown | 110 | 60
mAb 191 (antibody, V domains shown, VH and VL only) VH: QVQLVESGGGVVQPGRSLRLSCAASGFTFSGYGMHWVRQAPGKGLEWVAIIYYNGKKEYYADSVKGRFTISRDNSKNTLYLQMNSLRAEDTAVYYCTRGEGYNWFDPWGQGTLVTVSS VL: EIVMTQSPATLSVSPGERATLSCRASQSVSSNLAWYQQKPGQAPRLLIYGASTRATGIPARFSGSGSGTDFTLTISSLQSEHFAVYYCQQYTNWPLTFGGGTKVEIK | 28 | 15
mAb 192 (antibody, V domains shown, VH and VL only) VH: QVQLVESGGGVVQPGRSLRLSCAASGFTFSGYGMHWVRQAPGKGLEWVAIIYYNGKKEYYADSVKGRFTISRDNSKNTLYLQMNSLRAEDTAVYYCTRGEGYNWFDPWGQGILVTVSS VL: EIVMTQSPATLSVSPGERATLSCRASQSVSSNLAWYQQKPGQAPRLLIYGASTRATGIPARFSGSGSGTEFTLTISSLQSEDFAVYYCKQYKNWPLTFGGGTKVEIK | 9.2 | 9.3
mAb 197 (antibody, V domains shown, VH and VL only) VH: QVQLVESGGGVVQPGGSLRLSCAASGFTFSGYGMHWVRQAPGKGLEWVAIIWYNGRKTYYAESVKGRFTISRDNSKNTLSLQMNSLRVEDTAVYYCTTGQGYNWFDPWGQGTLVTVSS VL: EIVMTQSPATLSVSPGERATLSCRASQSVSSNLAWYQQKPGQAPRLLIYGASTRATGIPARFSGSGSGTEFTLTISSLQSEDFAVYYCQQFNAWPLTFGGGTKMEIK | 49 | 17
mAb 198 (antibody, V domains shown, VH and VL only) VH: QVQLVESGGGVVQPGGSLRLSCAASGFTFSGYGMHWVRQAPGKGLEWVAIIWYNGRKTYYAESVKGRFTISRDNSKNTLSLQMNSLRIEDTAVYYCTTGQGYNWFDPWGQGTLVTVSS VL: EIVMTQSPATLSVSPGERATLSCRASQSVSSNLAWYQQKPGQAPRLLIYGASTRATGIPARFSGSGSGTEFTLTISSLQSEDFAVYYCQQFNAWPLTFGGGTKMEIK | 41 | 30
mAb 199 (antibody, V domains shown, VH and VL only) VH: QVQLVESGGGVVQPGRSLRLSCAASGFTFSGYGMHWVRQAPGKGLEWVAIIYYNGKKEYYADSVKGRFTIFRDNSKNTLYLHMNSLRAEDTAVYYCTRGEGYNWFDPWGQGTLVTVSS VL: EIVMTQSPATLSVSPGERATLSCRASQSVSRNLAWYQQKPGQAPRLLIYGASTRATGIPARFSGSGSGTEFTLTISSLQSEDFAVYYCQQYNNWPLTFGGGTKVEIK | 26 | 29
